No end group written: not given here.
Biological target: T1, membrane hyaluronidase Hyal-2 on spleen cells of NOD-SCID mice (mouse (spleen cells of NOD-SCID mice), UniProt O35632 21-448)
T1 construct: whole, on cells; Endogenous protein on mouse spleen cells, detected with an antibody against Hyal-2; also called hyaluronidase-2
T1 sequence (looked up): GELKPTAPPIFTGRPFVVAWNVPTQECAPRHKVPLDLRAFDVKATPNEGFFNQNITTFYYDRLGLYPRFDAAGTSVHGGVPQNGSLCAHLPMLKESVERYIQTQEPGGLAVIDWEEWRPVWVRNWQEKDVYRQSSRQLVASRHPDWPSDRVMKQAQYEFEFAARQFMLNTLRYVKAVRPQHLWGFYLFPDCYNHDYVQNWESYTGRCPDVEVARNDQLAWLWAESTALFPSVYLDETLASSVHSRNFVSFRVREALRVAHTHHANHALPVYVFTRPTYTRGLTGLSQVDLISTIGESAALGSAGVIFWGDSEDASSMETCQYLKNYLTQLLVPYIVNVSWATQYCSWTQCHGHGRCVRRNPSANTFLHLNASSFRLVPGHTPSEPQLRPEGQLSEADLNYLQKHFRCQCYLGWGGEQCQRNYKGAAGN
Assay: epifluorescence and confocal microscopy of NOD-SCID spleen cells stained with TMR-Zfra1-31 and Hyal-2 antibody
Procedure: FIG. 2 includes photos showing the identification of Zfra⁺ Hyal-2⁺ spleen cells. A and B: Spleen cells of NOD-SCID mice were isolated and stained with synthesized peptide TMR-Zfra₁₋₃₁ and Hyal-2 (green fluorescence) antibody for 30 minutes on ice, and then fixed with 4% formaldehyde. Zfra bound to membrane hyaluronidase Hyal-2, as determined by epifluorescence and confocal microscopy.
In this example, spleen cells were isolated from immune deficient NOD-SCID mice, which are deficient in T and B lymphocytes and NK cells. The isolated spleen cells were stained with antibody against Hyal-2 (green) and TMR-Zfra (Zfra₁₋₃₁ labeled with red fluorescent tetramethylrodamine) for 30 minutes on ice, and then fixed with 4% formaldehyde (FIG. 2). […] These Hyal-2⁺ Zfra⁺ positive cells are interchangeably referred to as “Z cells,” for cells interacting with Zfra.

B1: TMR-Zfra1-31 (Zfra1-31 labeled with red fluorescent tetramethylrodamine) (peptide)
peptide: MSSRRSSSCKYCEQDFRAHTQKNAATPFLAN
modifications: cysteine pairing not given here; also: tetramethylrhodamine (TMR) label, position not given here
notes: Synthesized full-length Zfra peptide with a TMR label, used to stain spleen cells; also called Tetramethylrhodamine-Zfra
B1: binds.

Reference: patent publication US20150329824A1 (NATIONAL CHENG KUNG UNIVERSITY, published 2015)
